Experimental data published in publication PMC10821409, “The transport activity of the multidrug ABC transporter BmrA does not require a wide separation of the nucleotide-binding domains” (The Journal of Biological Chemistry, 2023).

Molecular target: the molecule itself
Test: cryo-EM structure; detergent-purified protein (DDM/cholate), apo, inward-facing state; C2 symmetry

B1: BmrA WT, homodimeric multidrug ABC transporter from Bacillus subtilis (natural protein)
chain: MPTKKQKSKSKLKPFFALVRRTNPSYGKLAFALALSVVTTLVSLLIPLLTKQLVDGFSMSNLSGTQIGLIALVFFVQAGLSAYATYALNYNGQKIISGLRELLWKKLIKLPVSYFDTNASGETVSRVTNDTMVVKELITTHISGFITGIISVIGSLTILFIMNWKLTLLVLVVVPLAALILVPIGRKMFSISRETQDETARFTGLLNQILPEIRLVKASNAEDVEYGRGKMGISSLFKLGVREAKVQSLVGPLISLVLMAALVAVIGYGGMQVSSGELTAGALVAFILYLFQIIMPMGQITTFFTQLQKSIGATERMIEILAEEEEDTVTGKQIENAHLPIQLDRVSFGYKPDQLILKEVSAVIEAGKVTAIVGPSGGGKTTLFKLLERFYSPTAGTIRLGDEPVDTYSLESWREHIGYVSQESPLMSGTIRENICYGLERDVTDAEIEKAAEMAYALNFIKELPNQFDTEVGERGIMLSGGQRQRIAIARALLRNPSILMLDEATSSLDSQSEKSVQQALEVLMEGRTTIVIAHRLSTVVDADQLLFVEKGEITGRGTHHELMASHGLYRDFAEQQLKMNADLENKAG
notes: BmrA, multidrug ABC transporter, Bacillus subtilis; hexa histidine-tagged pET23 BmrA; Residues 578 onward could not be modelled in PDB 8QOE; also called WT BmrA; WT protein; source: E. coli C41(DE3), purified in DDM/cholate (Ni-NTA)
**Q.** Does B1 bind?
**A.** Result: binds
